# Laboratory results published in US20110059063A1 (Amgen, published 2011).
# Positions count from the first letter of the chain named.
# T1: cell surface expressed human PAR-2 (human, UniProt P55085 25-397)
# T1 sequence: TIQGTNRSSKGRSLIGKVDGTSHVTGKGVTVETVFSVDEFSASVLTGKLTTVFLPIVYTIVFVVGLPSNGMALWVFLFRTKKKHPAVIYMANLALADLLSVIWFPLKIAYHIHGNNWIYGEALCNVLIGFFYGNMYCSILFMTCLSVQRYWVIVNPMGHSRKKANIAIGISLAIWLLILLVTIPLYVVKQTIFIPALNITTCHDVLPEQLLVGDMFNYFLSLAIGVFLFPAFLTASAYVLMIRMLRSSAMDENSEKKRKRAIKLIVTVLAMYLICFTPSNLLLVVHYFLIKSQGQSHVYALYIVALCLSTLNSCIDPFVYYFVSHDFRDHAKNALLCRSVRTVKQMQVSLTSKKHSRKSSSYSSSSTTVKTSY
# B1: anti-PAR-2 antibody 1A1 (antibody, V domains shown)
# VH: EVQLVQSGAEVKKPGESLKISCKGSGYNFISHWIGWVRQMPGKGLEWMGMIYPGDSDTRYSPSFQGQVTISADKSINTAYLQWRSLKASDTAMYFCARHGGITGTTFYYDFGMDVWGQGTTVTVSS
# VL: SYELTQPPSVSVSPGQTARITCSGDALPKQYASWYQQKPGQAPLLVIYRDSERPSGLPERFSGSSSGTTVTLTISGVQAEDEADYYCQSADSGGSYVFGTGTKVTVL
# notes: Human antibody from a XenoMouse hybridoma; also called monoclonal antibody 1A1
# B2: anti-PAR-2 antibody 1B5 (antibody, V domains shown)
# VH: EVQLVQSGAEVKKSGESLKISCKGSGYSFSNYWIGWVRQMPGKGLEWMGIIYPGDSDTRYSPSFQGQVTISADKSIRTAYLQWSSLKASDTAMYYCARHKGITGTTFYYDYGMDVWGQGTTVTVSS
# VL: B1 VL with D25E, L44V, S51T, L57I, G93N, S95A, K103R
# notes: Human antibody from a XenoMouse hybridoma
# B3: anti-PAR-2 antibody 1C7 (antibody, V domains shown)
# VH: B2 VH with S14P, S30T, N31S
# VL: B1 VL with D25E, L44V, R49K, L57I, G93N, S95A
# notes: as for B2
# B4: anti-PAR-2 antibody 2C6 (antibody, V domains shown)
# VH: QVQLVQSGAEVKKPGASVKVSCKASGYTFTGYFFHWVRQAPGQGLEWVGWINPNSGATHFAQKFQGRVTMTRDTSISTAYMELSRLRSDDTAVYYCARDGSNWNRDYGMDVWGQGTTVTVSS
# VL: QSVLTQPPSASGTPGQRVTISCSGSSSNIGINHVYWYQQLPGTAPKIFIYRNNQRPSGVPDRFSGSKSGTSASLAISGLRSEDEADYYCAVWDDSLSGVVFGGGTKLTVLG
# B5: anti-PAR-2 antibody 12D5 (antibody, V domains shown)
# VH: QVQLQQSGPGLVKPSQTLSLTCAISGDSVSSNRAAWNWIRQSPSRGLEWLGRTYYRSKWYNDFAVSVRSRITITPDTSKNQFSLQLNSVTPEDTAVYYCARDRNSGYYYYGLDVWGQGTTVTVSS
# VL: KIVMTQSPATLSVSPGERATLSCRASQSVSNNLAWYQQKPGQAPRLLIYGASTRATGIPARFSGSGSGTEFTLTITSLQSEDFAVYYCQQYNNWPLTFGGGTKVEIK
# B6: anti-PAR-2 antibody 13F2 (antibody, V domains shown)
# VH: B5 VH with F63H, R68K, T94K
# VL: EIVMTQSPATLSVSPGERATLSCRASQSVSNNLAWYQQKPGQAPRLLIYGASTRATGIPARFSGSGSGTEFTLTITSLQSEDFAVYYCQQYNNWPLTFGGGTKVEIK
# B7: anti-PAR-2 antibody 9B12 (antibody, V domains shown)
# VH: QVQLVESGGGVVQPGRSLRLSCAASGFTFSSYGMHWVRQAPGKGLEWVAVIWYDGSNKYYADSVKGRFTISRDNSKNTLYLQMNSLRAEDTAVYYCARDLGAAAGTGFDYWGQGTLVTVSS
# VL: QSVLTQPPSVSAAPGQKVTISCSGSSSNIGNNYVSWYQQLPGTAPKLLIYDNNKRPSGIPDRFSGSKSGTSATLGITGLQTGDEADYYCGTWDSSLSAGVVFGGGTKLTVL
# Target: T2, clipped N-terminal PAR-2/Fc polypeptide (human)
# T2 construct: also called truncated amino-terminal PAR-2-Fc; cleaved PAR-2/Fc
# Test: Western blot; by the footnote, an upstream binder binds only the full-length PAR-2/Fc
# Source text: To analyze binding to uncleaved versus cleaved PAR-2, various amounts of purified uncleaved and clipped N-terminal PAR2-Fc are subjected to SDS-PAGE using 8-16% polyacrylamide gradient gels (Novex gels, Invitrogen Life Technologies) in a Tris-Glycine buffer system. Gel lanes containing See Blue standards (Novex, Invitrogen Life Technologies) for molecular weight identification are also included. Following electrophoresis, proteins are transferred from gels onto nitrocellulose membranes using a Novex XCell II Blot Module (Invitrogen Life Technologies). Membranes are blocked with 1:1, Odyssey blocking buffer, OBB, (LI-COR Biosciences):TBS (Tris Buffer Saline) overnight at 4 C with shaking. Antibodies to be analyzed are diluted in 1:1 OBB:TBS at a desired final concentration for 1 hr at room temperature. Membranes are washed extensively with 0.1% Tween 20 in TBS (3-4 changes of 100 ml over ˜1 hr). Membranes are then exposed to the appropriate secondary antibody-Alexa680 (Molecular Probes, Invitrogen Life Technologies) conjugate (goat anti-rabbit IgG, or goat anti-mouse IgG) diluted 1:5000 in 1:1 (OBB:TBS) for 1 hr at room temperature. Membranes are washed as described above, and if desired, analyzed using a LI-COR Odyssey Infrared Imaging System (LI-COR Biosciences).
# Several PAR-2 antibodies were tested in different assay formats; Table 2 summarizes the results. IC₅₀ values were determined in a FLIPR assay for Ca2+ mobilization described previously; binding to the upstream region of the cleavage site versus the downstream region of the cleavage site was determined using the Western blot assay described previously.
row,binding result,Binder
1,no binding,B1
2,no binding,B2
3,no binding,B3

# Target: T1, cell surface expressed human PAR-2
# Test: KinExA, cells expressing human PAR-2, averaged for N=5 experiments; antibody 1A1; N=5 experiments
# Source text: This example describes the analysis of the binding properties of PAR-2 antigen-binding proteins to cell surface expressed PAR-2 utilizing a Kinetic Exclusion Assay which measures binding events in solution phase and can be used to calculate KD, Kₒₙ and Koff (KinExA®; Sapidyne Instruments, Boise, Id.), substantially as described previously by Xie et. al. J. Imm, Methods 304:1 (2005) and Rathanaswami et. al. Anal. Biochem. 373:52 (2008). Briefly, serial dilutions of cells expressing human PAR-2 (for example, CHO transfectants expressing human PAR-2 at the cell surface, obtainable by transfecting CHO cells with human full length PAR-2 cDNA encoding a polypeptide of SEQ ID NO:2) and control cells (i.e., non-transfected CHO cells) in a modified DMEM medium (phenol red free containing 10% heat inactivated FBS, 0.1 mM MEM non-essential amino acids, 1 mM sodium pyruvate, penicillin-streptomycin-glutamine, and 0.025% (w/w) sodium azide) are incubated with set amounts of antibody for 24 to 36 hours at 4 C with rotation. […] The free mAb is measured by KinExA® using the appropriate capture beads and Cy5-conjugated anti-human secondary antibodies, as described by Rathanaswami et al. Biochem Biophys Research Commun:1004 (2005). […]
# The KD of certain PAR-2 antibodies was determined in this manner.
row,Kd [nM],Binder
1,0.0628,B1

# Target: PAR-2 (on the cells of the FLIPR Ca2+ mobilization assay)
# Sequence (P55085 whole entry): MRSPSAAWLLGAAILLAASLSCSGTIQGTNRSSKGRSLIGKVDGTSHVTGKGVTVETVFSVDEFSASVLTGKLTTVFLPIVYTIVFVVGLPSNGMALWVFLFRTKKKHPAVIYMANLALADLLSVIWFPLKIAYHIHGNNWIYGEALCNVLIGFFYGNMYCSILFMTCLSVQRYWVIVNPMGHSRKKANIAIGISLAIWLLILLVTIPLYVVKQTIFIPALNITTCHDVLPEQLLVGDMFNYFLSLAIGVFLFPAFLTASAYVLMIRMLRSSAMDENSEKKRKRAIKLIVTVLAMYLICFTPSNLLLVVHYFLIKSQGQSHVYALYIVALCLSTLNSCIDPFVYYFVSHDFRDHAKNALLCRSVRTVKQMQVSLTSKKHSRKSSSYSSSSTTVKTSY
# Test: cell-based or functional assay
row,"IC50, FLIPR assay for Ca2+ mobilization [nM]",Binder
1,> 1000,B4
2,2,B1
3,3,B2
4,3,B3
5,> 1000,B5
6,> 1000,B6
7,> 1000,B7
